This assay deals with Alexa488-labelled NLRP3 (human). Briefly: MST.

A word on the Kd: it is a measure of binding affinity in units of concentration. A low value points to tighter binding. “NEK7 (wild type; NEK7 monomer) (from UniProt Q8TDX7 1-302) (enzyme)” showed a Kd of 78.9 nM.

The values are drawn from paper PMC6774351.
